Tests used:
purified protein [1] = substrate: O=P(O)(O)O[C@H]1O[C@H](CO)[C@@H](O)[C@H](O)[C@H]1O; test: purified protein; format: biochemical, Caenorhabditis elegans; conditions: 1 mM UTP, 5 mM MgCl2, pH 7.5, 25°C
purified protein [2] = substrate: O=c1ccn([C@@H]2O[C@H](COP(=O)(O)OP(=O)(O)OP(=O)(O)O)[C@@H](O)[C@H]2O)c(=O)[nH]1; test: purified protein; format: biochemical, Caenorhabditis elegans; conditions: 1 mM Glc-1-P, 5 mM MgCl2, pH 7.5, 25°C

B1: UGP-1 (Caenorhabditis elegans) (protein)
chain: MSNDQLKSKLREFFDRQPDQSEKAHQDSKIFEVLYSQFLENQHCIDWNSWKFLEEKHQVTLKDLEPFDKSRFNILNKLAVIKLNGGLGTTMGCSKAKSLVEVREGYTFMDLAVLEHQKMCEAHNVDTPLYLMNSFYTDEDTKKYLAEKGYSNVKTFVQSKCPRLDAETKLPIEDENEDWGDDAWCPPGHGNIFQSLQNSGVLDQLLADGREIIFVSNIDNTGANTDLQIVQLMLDKNVDYIMECTPKTQVDVKGGTLIDIGGRMMHLEMPQVPAENLPDFCSTKVFKIFNTNNIYVNLKAVKKLLPDIKSEIIVNKKTIRSREVLQLEFSIGGCIKNFDNALCVHVERKRFRPVKNLGDLLSLRSTLCDLDHSTFKVHHNHELGAPPVISLDPSIYNSVEVVDLKFPHPLVMDNCSEFAVVGDVTFGKNVKLSGKVTVNGKTESPGVVPDGTVLKDQEYIAE
Km (purified protein [1]): 77.65 ± 7.73 µM
kcat (purified protein [1]): 23 ± 0.65 s⁻¹
kcat/Km (purified protein [1]): 300000 ± 31000 M⁻¹ s⁻¹
Km (purified protein [2]): 13.85 ± 2.95 µM
kcat (purified protein [2]): 20 ± 0.7 s⁻¹
kcat/Km (purified protein [2]): 1.45e+06 ± 310000 M⁻¹ s⁻¹

Reference: paper PMC4888466
